The target of assay [1] is Peptide P3r (randomly shuffled amino acid sequence of peptide P3). The experiment in a line: SPR. For orientation: Surface plasmon resonance follows binding to a sensor surface in real time, without labels.
For assay [2], the target named is Peptide P3 (BMP9 peptide mimetic designed from the type I receptor binding site) (UniProt Q9UK05 320-429). The experiment in a line: SPR.

B1: ALK2-Fc (activin receptor like kinase 2, Fc fusion) (Fc fusion)
chain: MEDEKPKVNPKLYMCVCEGLSCGNEDHCEGQQCFSSLSINDGFHVYQKGCFQVYEQGKMTCKTPPSPGQAVECCQGDWCNRNITAQLPTKGKSFPGTQNFHLE
The Kd is a measure of binding affinity in units of concentration. Low values mean tighter binding, high ones weaker binding. B1: the results for the Kd in assay [1] and in assay [2] were 9.42 mM and 6.7 mM, respectively.

B2: ALK3-Fc (activin receptor like kinase 3, Fc fusion) (Fc fusion)
chain: QNLDSMLHGTGMKSDSDQKKSENGVTLAPEDTLPFLKCYCSGHCPDDAINNTCITNGHCFAIIEEDDQGETTLASGCMKYEGSDFQCKDSPKAQLRRTIECCRTNLCNQYLQPTLPPVVIGPFFDGSIR
Regarding B2, the Kd came out at 4.3 mM in assay [1] and 5.8 mM in assay [2].

For the origin of these results see publication PMC6748948 (2019).
